In this test the target is sTREM-1 (UniProt Q9NP99-2 21-150, labelled with Alexa Fluor 488 (Protein Labeling Kit)). Put plainly: MST; sTREM-1 labelled with Alexa Fluor 488; peptide in 16 concentrations by sequential dilution; 30 min in the dark at room temperature; Monolith NT.115, 8% IR laser power; at least three replicates. Conditions: both partners purified.
sTREM-1, sequence (Q9NP99 other isoform, or with tags, fused parts or gaps): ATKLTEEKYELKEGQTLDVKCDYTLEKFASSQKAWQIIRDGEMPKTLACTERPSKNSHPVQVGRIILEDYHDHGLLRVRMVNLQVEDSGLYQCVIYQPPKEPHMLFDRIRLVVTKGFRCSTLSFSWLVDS

B1: peptide N7 (16aa peptide of Hsp70) (peptide)
peptide: SDNQPGVLIQVYEGEK
notes: Hsp70, human; Found by MALDI-TOF in a trypsin hydrolysate of recombinant human Hsp70, then synthesised; also called N7 peptide; Hsp70 N7 peptide; source: synthetic peptide (Fmoc, purified by HPLC)
B1 showed a Kd of 1.6 nM.

What is called Kd is the constant that tells how readily two partners part at equilibrium. A lower Kd goes with a tighter complex.
